{"source": "paper PMC10761746", "about": "(Scientific Reports, 2024)", "molecular_target": "T1, His6-RpoA (purified) (UniProt P0A7Z7 1-329)", "T1 construct": "also called RNA polymerase alpha subunit", "T1 sequence (P0A7Z7 whole entry)": "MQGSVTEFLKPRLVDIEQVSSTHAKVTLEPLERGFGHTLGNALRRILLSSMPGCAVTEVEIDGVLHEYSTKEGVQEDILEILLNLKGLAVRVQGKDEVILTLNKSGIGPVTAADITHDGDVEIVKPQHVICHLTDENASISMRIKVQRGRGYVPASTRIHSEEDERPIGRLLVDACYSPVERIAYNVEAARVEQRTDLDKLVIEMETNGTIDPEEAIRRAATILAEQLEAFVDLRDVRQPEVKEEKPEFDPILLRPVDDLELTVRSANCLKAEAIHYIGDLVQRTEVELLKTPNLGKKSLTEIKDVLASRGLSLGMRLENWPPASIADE", "experiment": "pull-down", "conditions": "both partners purified"}
{"binder": "MBP-InvF (InvF fused to the maltose-binding protein) (natural protein, also called Transcriptional regulator InvF) MSFSESRHNENCLIQEGALLFCEQAVVAPVSGDLVFRPLKIEVLSKLLAFIDGAGLVDTTYAESDKWVLLSPEFRAIWQDRKRCEYWFLQQIITPSPAFNKVLALLRKSESYWLVGYLLAQSTSGNTMRMLGEDYGVSYTHFRRLCSRALGGKAKSELRNWRMAQSLLNSVEGHENITQLAVNHGYSSPSHFSSEIKELIGVSPRKLSNIIQLADK", "values": [{"measurement": "binding result", "result": "binds"}]}
